{
  "source": "patent US20190031759A1",
  "about": "(TECHNION RESEARCH AND DEVELOPMENT FOUNDATION, published 2019)",
  "molecular_target": "recombinant single-chain HLA-A2-WT1Db126 complex (soluble, biotinylated scMHC-peptide complex) (human, site-specific biotinylation at the BirA recognition sequence at the carboxyl-terminus)",
  "assay": "SPR (ProteOn XPR36), soluble HLA-A2/WT1Db126 complexes on chip-immobilized Fabs coupled through an anti-human Fab",
  "data": [
    {"binder": "F3 anti-HLA-A2/WT1Db126 TCR-like recombinant Fab antibody (Fab, V domains shown, Soluble human Fab from a naive phage Fab library; also called F3 Fab; F3 TCRL) VH: EVQLVQSGAEVKKTGSSVKVSCKASGYTFTYRYLHWARQAPGQALEWMGWITPFNGNTNYAQKFQDRVTITRDRSMSTAYMELSSLRSEDTAMYYCASSAYDAFDIWGQGTMVTV VL: LSSELTQDPAVSVALGQTVKITCQGDSLRIHYASWYQQKPGQAPVLVIYGKDNRPSGIPDRFSGSSSGTSASLTITGARAEDEADYYCNSRDNSGDHVLFGGGTKLTVV", "values": [
      {"measurement": "Kd", "result": 30, "unit": "nM"}
    ]},
    {"binder": "F2 anti-HLA-A2/WT1Db126 TCR-like recombinant Fab antibody (Fab, V domains shown, Soluble human Fab from a naive phage Fab library, expressed in E. coli and purified on a TALON column; also called F2 Fab; F2 TCRL) VH: QVQLVQSGGGLVKPGGSLRLSCAASGFTFSSYSMNWVRQAPGKGLEWVSSISSSSSYIYYADSVKGRFTISRDNAKNSLYLQMNSLRAEDTAVYYCARGDYYGLTFDPWGQGTLVTV VL: LNFMLTQPHSVSESPGKTVTISCTRSSGSIASNYVQWYQQRPGSSPTTVIYEDNQRPSGVPDRFSGSIDSSSNSASLTISGLKTEDEADYYCQSYDSSNQNWVFGGGTKLTVLS", "values": [
      {"measurement": "Kd", "result": 400, "unit": "nM"}
    ]}
  ]
}
